From publication PMC9001700 (Communications Biology, 2022)

T1: synthetic stem helix peptide spanning residues 1149–1167 (SARS-CoV-2, UniProt P0DTC2)
T1 chain: KEELDKYFKNHTSPDVDLG

B1: CV3-25 IgG (antibody, V domains shown)
VH: QVQLVESGAEVKKPGESLKISCKGSGYTFTRYWIGWVRQMPGKGLEWMGIIYPGDSDTRYSPSFQGHVTISADKSISTAYLQWNSLKASDTAMYYCARLPQYCSNGVCQRWFDPWGQGTLVTVSS
VL: EIVLTQSPSSVSASVGDRVTITCRASQGISSWLAWYQQKPGKAPKLLIYAASSLQSGVPSRFSGSGSGTDFTLTISSLQPEDFATYYCQQGNSFPYTFGQGTNLEIK
notes: also called CV3-25 mAb; source: 293 cells, purified (protein A resin); copies: 2 + 2
B2: CV3-25 Fab (Fab, V domains shown)
VH: B1 VH
VL: B1 VL
notes: also called monovalent Fab

Key:
Details in all cases: both partners purified
[1] = target: T2, HCoV-HKU1 S-2P-T4f-3C-His8-Strep2x2 (stabilized spike ectodomain) (HCoV-HKU1, isolate  (isolate …, UniProt Q0ZME7, stabilised)); test: BLI
T2 construct: also called HCoV-HKU1-S2P.his; stabilized spike ectodomain from HCoV-HKU1; source: 293E cells, purified (Ni-NTA, SEC on superose 6)

[2] = target: T3, HCoV-OC43 S-2P-T4f-3C-His8-Strep2x2 (stabilized spike ectodomain) (HCoV-OC43, strain , UniProt P36334, stabilised); test: BLI
T3 construct: also called HCoV-OC43-S2P.his; stabilized spike ectodomain from HCoV-OC43; source: 293E cells, purified (Ni-NTA, SEC on superose 6)

[3] = target: T1, synthetic stem helix peptide spanning …; test: crystal structure

Binder | binding result [1] | binding result [2] | binding result [3]
B1 | binds | binds | –
B2 | – | – | binds
